Measured values as given in IntAct's records for PubMed 24130456.

B1: Ribosomal RNA-processing protein 7 (Saccharomyces cerevisiae), P25368 (parent)
chain: MGIEDISAMKNGFIVVPFKLPDHKALPKSQEASLHFMFAKRHQSSNSNESDCLFLVNLPLLSNIEHMKKFVGQLCGKYDTVSHVEELLYNDEFGLHEVDLSALTSDLMSSTDVNEKRYTPRNTALLKFVDAASINNCWNALKKYSNLHAKHPNELFEWTYTTPSFTTFVNFYKPLDIDYLKEDIHTHMAIFEQREAQAQEDVQSSIVDEDGFTLVVGKNTKSLNSIRKKILNKNPLSKHENKAKPISNIDKKAKKDFYRFQVRERKKQEINQLLSKFKEDQERIKVMKAKRKFNPYT
partner: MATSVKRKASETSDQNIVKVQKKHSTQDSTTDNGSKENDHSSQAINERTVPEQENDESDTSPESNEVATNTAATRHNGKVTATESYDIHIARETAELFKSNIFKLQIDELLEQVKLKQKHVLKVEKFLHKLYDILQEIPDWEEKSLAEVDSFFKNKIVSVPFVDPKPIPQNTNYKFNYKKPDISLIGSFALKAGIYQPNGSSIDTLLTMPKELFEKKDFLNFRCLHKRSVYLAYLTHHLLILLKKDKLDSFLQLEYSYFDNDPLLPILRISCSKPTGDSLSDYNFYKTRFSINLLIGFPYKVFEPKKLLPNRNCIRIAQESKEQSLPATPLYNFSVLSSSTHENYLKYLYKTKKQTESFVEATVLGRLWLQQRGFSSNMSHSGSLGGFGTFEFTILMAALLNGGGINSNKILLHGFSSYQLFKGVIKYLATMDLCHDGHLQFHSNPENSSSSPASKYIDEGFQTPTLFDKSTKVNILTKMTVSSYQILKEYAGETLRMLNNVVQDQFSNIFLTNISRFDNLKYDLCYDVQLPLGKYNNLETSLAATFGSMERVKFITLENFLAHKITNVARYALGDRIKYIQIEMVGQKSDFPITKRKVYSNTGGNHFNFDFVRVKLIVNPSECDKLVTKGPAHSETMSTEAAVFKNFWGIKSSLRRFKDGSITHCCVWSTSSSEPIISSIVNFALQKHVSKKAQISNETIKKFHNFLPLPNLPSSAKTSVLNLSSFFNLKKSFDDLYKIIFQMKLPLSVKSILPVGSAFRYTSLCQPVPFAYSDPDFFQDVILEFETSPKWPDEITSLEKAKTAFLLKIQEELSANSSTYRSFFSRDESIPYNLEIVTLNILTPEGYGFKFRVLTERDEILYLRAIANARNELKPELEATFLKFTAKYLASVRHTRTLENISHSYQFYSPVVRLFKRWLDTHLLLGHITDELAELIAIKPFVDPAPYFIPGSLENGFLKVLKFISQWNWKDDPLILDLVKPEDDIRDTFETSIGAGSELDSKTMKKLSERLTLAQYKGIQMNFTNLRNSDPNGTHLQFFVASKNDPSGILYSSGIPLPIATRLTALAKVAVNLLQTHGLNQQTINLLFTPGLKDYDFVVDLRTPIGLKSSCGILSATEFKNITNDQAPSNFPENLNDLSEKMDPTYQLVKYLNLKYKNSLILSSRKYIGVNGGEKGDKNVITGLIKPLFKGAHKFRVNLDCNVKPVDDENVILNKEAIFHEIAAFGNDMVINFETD

Variants of: B1
Conditions: with utp22_yeast UTP22, P53254

Row | effect of a mutation on the interaction | Variant
1 | disrupting interaction strength | MGIEDISAMKNGFIVVPFKLPDHKALPKSQEASLHFMDAKRHQSSNSNESDCLFLVNLPLLSNIEHMKKFVGQLCGKYDTVSHVEELLYNDEFGLHEVDLSALTSDLMSSTDVNEKRYTPRNTALLKFVDAASINNCWNALKKYSNLHAKHPNELFEWTYTTPSFTTFVNFYKPLDIDYLKEDIHTHMAIFEQREAQAQEDVQSSIVDEDGFTLVVGKNTKSLNSIRKKILNKNPLSKHENKAKPISNIDKKAKKDFYRFQVRERKKQEINQLLSKFKEDQERIKVMKAKRKFNPYT [F38D]
